Data published in patent US20170210777A1 (FUJIFILM, published 2017).
Square brackets hold non-standard residues; d marks the D form. Ends that are not written are not given here. peg8 = octa(ethylene glycol) chain, 8 ethylene glycol units

How the values were obtained:
[1] = biological target: T1, Bovine Serum Albumin (BSA, manufactured by Sigma-Aldrich) (bovine, UniProt P02769 25-607); test: SPR, ligand immobilised on CM5, BSA injected 10 min at 25 C
T1 construct: Injected at 1000 nM over the immobilised ligands in SPR (selectivity test)

human IgG antibody [2] = biological target: T2, human IgG antibody (human); test: SPR (Biacore), ligand immobilised on CM5
T2 construct: Injected at 10 to 3000 nM over the immobilised ligands in SPR

human IgG antibody [3] = biological target: T2, human IgG antibody; test: SPR (Biacore), ligand immobilised on CM5, fit with BIAevaluation 4.1

T1 sequence (P02769 25-607 limits assumed): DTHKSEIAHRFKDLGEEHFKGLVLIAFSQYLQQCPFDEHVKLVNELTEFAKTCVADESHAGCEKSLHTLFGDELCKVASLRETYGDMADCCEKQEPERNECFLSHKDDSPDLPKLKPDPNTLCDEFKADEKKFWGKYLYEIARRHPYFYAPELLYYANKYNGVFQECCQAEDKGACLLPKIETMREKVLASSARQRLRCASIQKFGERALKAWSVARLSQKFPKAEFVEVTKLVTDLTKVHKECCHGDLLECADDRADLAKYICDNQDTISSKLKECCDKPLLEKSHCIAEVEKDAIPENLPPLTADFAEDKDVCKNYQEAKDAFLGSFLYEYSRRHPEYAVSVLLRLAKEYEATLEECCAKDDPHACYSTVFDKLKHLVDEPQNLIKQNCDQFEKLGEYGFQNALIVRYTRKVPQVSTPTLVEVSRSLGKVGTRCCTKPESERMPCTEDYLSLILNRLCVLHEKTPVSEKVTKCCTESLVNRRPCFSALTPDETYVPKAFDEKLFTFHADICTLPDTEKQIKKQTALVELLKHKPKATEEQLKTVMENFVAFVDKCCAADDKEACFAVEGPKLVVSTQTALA

Row | Binder | binding result [1] | koff (human IgG antibody [2]) | koff (human IgG antibody [3])
1 | EQQNAFYEILHL (Synthetic peptide, immobilised on a CM5 sensor chip; also called immobilized carrier D) [polypeptide as set forth in SEQ ID NO: 4 (EQQNAFYEILHL)] | no binding (tested: 1000 nM) | 0.00013 s⁻¹ | –
2 | Ac-EQQNAFYEILHK (Synthetic peptide, immobilised on a CM5 sensor chip; also called immobilized carrier U) [polypeptide Ac-EQQNAFYEILHK (SEQ ID NO: 21)] | no binding (tested: 1000 nM) | 0.00016 s⁻¹ | –
3 | QQNAFYEI (Synthetic comparative peptide, immobilised on a CM5 sensor chip; also called immobilized carrier AC) [polypeptide as set forth in SEQ ID NO: 26 (QQNAFYEI)] | – | 0.00024 s⁻¹ | –
4 | Ac-EQQNAFY[peg8]K[peg8]EQQNAFY (Synthetic fusion polypeptide, 15 amino acid residues, the two units and the central Lys joined by PEG linkers and not by peptide bonds; immobilised on a CM5 sensor chip; also called immobilized carrier Y) [fusion polypeptide Ac-EQQNAFY-(peg)8-K-(peg)8-EQQNAFY (SEQ ID NO: 25)] | no binding (tested: 1000 nM) | 0.00019 s⁻¹ | –
5 | EQQNAFYGGGKGGGEQQNAFY (Synthetic fusion polypeptide of two EQQNAFY units with a GGGKGGG linker, immobilised on a CM5 sensor chip; also called immobilized carrier H) [polypeptide as set forth in SEQ ID NO: 8 (EQQNAFYGGGKGGGEQQNAFY)] | no binding (tested: 1000 nM) | 0.00015 s⁻¹ | –
6 | EAQQSAFY (Synthetic peptide, immobilised on a CM5 sensor chip; also called immobilized carrier N) [polypeptide as set forth in SEQ ID NO: 14 (EAQQSAFY)] | no binding (tested: 1000 nM) | 0.00014 s⁻¹ | –
7 | EAQQNAFY (Synthetic peptide, immobilised on a CM5 sensor chip; also called immobilized carrier P) [polypeptide as set forth in SEQ ID NO: 16 (EAQQNAFY)] | no binding (tested: 1000 nM) | 0.00019 s⁻¹ | –
8 | DAQQSAFY (Synthetic peptide, immobilised on a CM5 sensor chip; also called immobilized carrier Q) [polypeptide as set forth in SEQ ID NO: 17 (DAQQSAFY)] | no binding (tested: 1000 nM) | 0.00013 s⁻¹ | –
9 | EQQNAFY-NH2 (Synthetic peptide, immobilised on a CM5 sensor chip; also called immobilized carrier S) [polypeptide EQQNAFY-NH2 (SEQ ID NO: 19)] | no binding (tested: 1000 nM) | 0.00015 s⁻¹ | –
10 | Ac-KKKEQQNAFYEILHKKK (Synthetic peptide, immobilised on a CM5 sensor chip; also called immobilized carrier W) [polypeptide Ac-KKKEQQNAFYEILHKKK (SEQ ID NO: 23)] | no binding (tested: 1000 nM) | 0.00016 s⁻¹ | –
11 | EQQNAFY (Synthetic peptide, immobilised on a CM5 sensor chip by EDC/NHS coupling; also called polypeptide 1) [polypeptide as set forth in SEQ ID NO: 1 (EQQNAFY)] | no binding (tested: 1000 nM) | – | 0.00017 s⁻¹
12 | DQQSAFY (Synthetic peptide, immobilised on a CM5 sensor chip; also called immobilized carrier L) [polypeptide as set forth in SEQ ID NO: 12 (DQQSAFY)] | no binding (tested: 1000 nM) | 0.00015 s⁻¹ | –
13 | EGQNAFY (Synthetic peptide, immobilised on a CM5 sensor chip; also called immobilized carrier E) [polypeptide as set forth in SEQ ID NO: 5 (EGQNAFY)] | no binding (tested: 1000 nM) | 0.0002 s⁻¹ | –
14 | EQQSAFY (Synthetic peptide, immobilised on a CM5 sensor chip; also called immobilized carrier J) [polypeptide as set forth in SEQ ID NO: 10 (EQQSAFY)] | no binding (tested: 1000 nM) | 0.00015 s⁻¹ | –
15 | Ac-EQQNAFYK (Synthetic peptide, immobilised on a CM5 sensor chip; also called immobilized carrier T) [polypeptide Ac-EQQNAFYK (SEQ ID NO: 20)] | no binding (tested: 1000 nM) | 0.00014 s⁻¹ | –
16 | peg8-EQQNAFYE (Synthetic peptide, immobilised on a CM5 sensor chip; also called immobilized carrier X) [polypeptide H2N-(peg)8-EQQNAFYE (SEQ ID NO: 24)] | no binding (tested: 1000 nM) | 0.00013 s⁻¹ | –
17 | KKKEQQNAFYKKK (Synthetic peptide, immobilised on a CM5 sensor chip; also called immobilized carrier F) [polypeptide as set forth in SEQ ID NO: 6 (KKKEQQNAFYKKK)] | no binding (tested: 1000 nM) | 0.00015 s⁻¹ | –
18 | Ac-KKKEQQNAFYKKK (Synthetic peptide, immobilised on a CM5 sensor chip; also called immobilized carrier V) [polypeptide Ac-KKKEQQNAFYKKK (SEQ ID NO: 22)] | no binding (tested: 1000 nM) | 0.00015 s⁻¹ | –
19 | EQSAFY (Synthetic peptide, immobilised on a CM5 sensor chip; also called immobilized carrier O) [polypeptide as set forth in SEQ ID NO: 15 (EQSAFY)] | no binding (tested: 1000 nM) | 0.00014 s⁻¹ | –
20 | EQNAFY (Synthetic peptide, immobilised on a CM5 sensor chip; also called immobilized carrier I) [polypeptide as set forth in SEQ ID NO: 9 (EQNAFY)] | no binding (tested: 1000 nM) | 0.00017 s⁻¹ | –
21 | DQSAFY (Synthetic peptide, immobilised on a CM5 sensor chip; also called immobilized carrier R) [polypeptide as set forth in SEQ ID NO: 18 (DQSAFY)] | no binding (tested: 1000 nM) | 0.00019 s⁻¹ | –
22 | KEQQNAFY (Synthetic peptide, immobilised on a CM5 sensor chip; also called immobilized carrier B) [polypeptide as set forth in SEQ ID NO: 2 (KEQQNAFY)] | no binding (tested: 1000 nM) | 0.00013 s⁻¹ | –
23 | EQQSAFYEILH (Synthetic peptide, immobilised on a CM5 sensor chip; also called immobilized carrier K) [polypeptide as set forth in SEQ ID NO: 11 (EQQSAFYEILH)] | no binding (tested: 1000 nM) | 0.00018 s⁻¹ | –
24 | DQQSAFYEILH (Synthetic peptide, immobilised on a CM5 sensor chip; also called immobilized carrier M) [polypeptide as set forth in SEQ ID NO: 13 (DQQSAFYEILH)] | no binding (tested: 1000 nM) | 0.00015 s⁻¹ | –
25 | EQQNAFYEILH (Synthetic peptide, immobilised on a CM5 sensor chip; also called immobilized carrier C) [polypeptide as set forth in SEQ ID NO: 3 (EQQNAFYEILH)] | no binding (tested: 1000 nM) | 0.00017 s⁻¹ | –
26 | KKKEQQNAFYEILHKKK (Synthetic peptide, immobilised on a CM5 sensor chip; also called immobilized carrier G) [polypeptide as set forth in SEQ ID NO: 7 (KKKEQQNAFYEILHKKK)] | no binding (tested: 1000 nM) | 0.00016 s⁻¹ | –
